Measured values as given in US20120190623A1.
pKd: −log10 of the molar value. One block for each substance: values may come before it.

Tests used:
[1] = molecular target: A1/A3-C1-C2 heterodimer of thrombin-cleaved FVIII (human) (UniProt P00451); assay: optical biosensor, purified protein after thrombin cleavage
[2] = molecular target: IR8 (90/b/73 R336I/R562K/R740A; del795-1688/Arg336Iso/Arg562Lys/Arg740Ala) (human) (UniProt P00451); assay: cell-based or functional assay
[3] = molecular target: wild-type factor VIII (FVIII WT) (human) (UniProt P00451); assay: cell-based or functional assay
[4] = molecular target: von Willebrand factor (vWF) (human) (UniProt P04275); assay: FVIII-vWF binding ELISA, anti-A2 domain trap, vWF from FVIII-deficient plasma, anti-vWF-HRP detection, no ESH8
[5] = molecular target: von Willebrand factor (vWF) (human) (UniProt P04275); assay: ELISA and affinity biosensor analysis
[6] = molecular target: von Willebrand factor (vWF) (human) (UniProt P04275); assay: biosensor (SPR), IR8 captured on immobilized anti-fVIII antibody; without ESH8
[7] = molecular target: von Willebrand factor (vWF) (human) (UniProt P04275); assay: summary of ELISA and biosensor results
vWF (human) [8] = molecular target: vWF (human) (UniProt P04275); assay: biosensor (SPR), IR8 captured on immobilized anti-fVIII antibody; with ESH8
[9] = molecular target: von Willebrand factor (vWF) (human) (UniProt P04275); assay: in vitro binding to vWF, method not named in the sentence (ELISA / affinity biosensor)
[10] = molecular target: von Willebrand factor (vWF) (human) (UniProt P04275); assay: FVIII-vWF binding ELISA, anti-A2 domain trap, vWF from FVIII-deficient plasma, anti-vWF-HRP detection, with ESH8
vWF (human) [11] = molecular target: vWF (human) (UniProt P04275); assay: biosensor (SPR), fVIII captured on immobilized anti-fVIII antibody
[12] = molecular target: IR8 (90/b/73 R336I/R562K/R740A; del795-1688/Arg336Iso/Arg562Lys/Arg740Ala) (human) (UniProt P00451); assay: optical biosensor; IR8 (30 nM) captured on immobilized Mab NMC-VIII/5, vWF added at 10 nM
[13] = molecular target: IR8 (90/b/73 R336I/R562K/R740A; del795-1688/Arg336Iso/Arg562Lys/Arg740Ala) (human) (UniProt P00451); assay: optical biosensor; IR8 captured on immobilized Mab NMC-VIII/5, vWF added at 10 nM

Chain of IR8 (90/b/73 R336I/R562K/R740A; del795-1688/Arg336Iso/Arg562Lys/Arg740Ala) (human) (P00451 other isoform, or with tags, fused parts or gaps R336I R562K R740A R562K R740A R336I R562K R740A R562K R740A, form in doubt): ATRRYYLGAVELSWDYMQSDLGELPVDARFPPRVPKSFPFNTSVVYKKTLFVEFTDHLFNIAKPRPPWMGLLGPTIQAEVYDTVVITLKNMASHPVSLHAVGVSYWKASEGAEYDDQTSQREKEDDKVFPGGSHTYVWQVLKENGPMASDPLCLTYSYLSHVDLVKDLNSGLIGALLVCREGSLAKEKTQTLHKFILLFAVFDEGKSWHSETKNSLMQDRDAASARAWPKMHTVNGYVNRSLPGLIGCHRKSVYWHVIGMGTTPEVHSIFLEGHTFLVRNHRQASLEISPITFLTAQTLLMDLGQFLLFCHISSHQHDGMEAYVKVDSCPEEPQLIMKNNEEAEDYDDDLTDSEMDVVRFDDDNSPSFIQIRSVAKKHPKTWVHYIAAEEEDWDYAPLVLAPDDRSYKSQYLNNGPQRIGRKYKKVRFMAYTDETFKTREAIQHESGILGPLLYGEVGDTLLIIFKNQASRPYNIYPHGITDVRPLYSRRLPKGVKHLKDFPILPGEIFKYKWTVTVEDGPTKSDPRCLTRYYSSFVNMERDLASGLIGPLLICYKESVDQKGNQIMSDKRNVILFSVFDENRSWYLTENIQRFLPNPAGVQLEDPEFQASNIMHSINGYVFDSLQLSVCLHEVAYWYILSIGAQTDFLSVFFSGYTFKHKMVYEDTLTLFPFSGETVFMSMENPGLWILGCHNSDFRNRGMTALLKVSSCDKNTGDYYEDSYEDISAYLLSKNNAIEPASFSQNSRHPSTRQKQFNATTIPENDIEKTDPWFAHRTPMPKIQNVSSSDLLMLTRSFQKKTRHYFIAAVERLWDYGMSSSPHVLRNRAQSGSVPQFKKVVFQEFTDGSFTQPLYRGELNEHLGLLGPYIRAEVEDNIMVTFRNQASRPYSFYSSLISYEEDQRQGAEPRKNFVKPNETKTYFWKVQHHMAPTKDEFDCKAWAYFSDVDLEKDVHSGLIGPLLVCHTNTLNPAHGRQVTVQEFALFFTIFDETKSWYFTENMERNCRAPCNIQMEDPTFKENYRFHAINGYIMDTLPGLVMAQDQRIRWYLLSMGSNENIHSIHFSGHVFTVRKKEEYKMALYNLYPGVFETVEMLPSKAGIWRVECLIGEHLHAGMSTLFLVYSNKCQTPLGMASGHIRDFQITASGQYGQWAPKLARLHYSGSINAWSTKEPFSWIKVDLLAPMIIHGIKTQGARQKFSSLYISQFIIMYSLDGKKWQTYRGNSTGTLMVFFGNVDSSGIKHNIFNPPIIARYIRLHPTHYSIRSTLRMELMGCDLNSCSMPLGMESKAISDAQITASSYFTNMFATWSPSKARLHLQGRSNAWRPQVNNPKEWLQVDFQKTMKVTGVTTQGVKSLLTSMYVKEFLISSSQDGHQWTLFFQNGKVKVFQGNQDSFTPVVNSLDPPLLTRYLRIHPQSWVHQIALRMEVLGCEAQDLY
Chain of A1/A3-C1-C2 heterodimer of thrombin-cleaved FVIII (human) (P00451 20-391, chain 1 of 2): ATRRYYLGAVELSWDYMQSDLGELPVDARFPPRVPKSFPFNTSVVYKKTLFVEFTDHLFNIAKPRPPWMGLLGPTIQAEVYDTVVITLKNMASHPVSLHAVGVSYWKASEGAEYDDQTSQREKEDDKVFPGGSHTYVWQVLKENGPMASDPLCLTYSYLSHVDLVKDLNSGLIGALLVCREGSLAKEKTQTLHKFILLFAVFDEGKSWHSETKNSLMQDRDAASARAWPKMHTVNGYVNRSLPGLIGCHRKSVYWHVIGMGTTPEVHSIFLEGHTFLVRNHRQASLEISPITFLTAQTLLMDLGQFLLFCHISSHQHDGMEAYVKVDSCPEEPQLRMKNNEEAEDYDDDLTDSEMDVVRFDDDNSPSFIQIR
Chain of A1/A3-C1-C2 heterodimer of thrombin-cleaved FVIII (human) (P00451 1709-2351, chain 2 of 2): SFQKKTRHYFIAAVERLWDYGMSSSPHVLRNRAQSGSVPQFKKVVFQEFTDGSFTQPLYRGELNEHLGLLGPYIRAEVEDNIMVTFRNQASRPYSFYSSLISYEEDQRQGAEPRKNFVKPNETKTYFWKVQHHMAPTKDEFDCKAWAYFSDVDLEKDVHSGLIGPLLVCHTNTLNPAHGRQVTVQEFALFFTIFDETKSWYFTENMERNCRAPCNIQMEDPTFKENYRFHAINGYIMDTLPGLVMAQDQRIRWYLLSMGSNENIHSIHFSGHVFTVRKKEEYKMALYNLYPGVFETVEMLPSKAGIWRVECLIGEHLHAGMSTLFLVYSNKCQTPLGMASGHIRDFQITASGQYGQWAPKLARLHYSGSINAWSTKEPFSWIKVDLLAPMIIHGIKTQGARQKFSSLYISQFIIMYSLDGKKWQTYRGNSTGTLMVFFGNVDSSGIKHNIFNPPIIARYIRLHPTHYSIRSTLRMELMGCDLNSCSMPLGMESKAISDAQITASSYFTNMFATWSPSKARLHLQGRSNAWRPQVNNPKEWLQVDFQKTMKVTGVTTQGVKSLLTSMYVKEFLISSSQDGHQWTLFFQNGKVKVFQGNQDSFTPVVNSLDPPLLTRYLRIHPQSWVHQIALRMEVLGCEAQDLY
Chain of IR8/ESH8 (P00451 whole entry, one chain of several): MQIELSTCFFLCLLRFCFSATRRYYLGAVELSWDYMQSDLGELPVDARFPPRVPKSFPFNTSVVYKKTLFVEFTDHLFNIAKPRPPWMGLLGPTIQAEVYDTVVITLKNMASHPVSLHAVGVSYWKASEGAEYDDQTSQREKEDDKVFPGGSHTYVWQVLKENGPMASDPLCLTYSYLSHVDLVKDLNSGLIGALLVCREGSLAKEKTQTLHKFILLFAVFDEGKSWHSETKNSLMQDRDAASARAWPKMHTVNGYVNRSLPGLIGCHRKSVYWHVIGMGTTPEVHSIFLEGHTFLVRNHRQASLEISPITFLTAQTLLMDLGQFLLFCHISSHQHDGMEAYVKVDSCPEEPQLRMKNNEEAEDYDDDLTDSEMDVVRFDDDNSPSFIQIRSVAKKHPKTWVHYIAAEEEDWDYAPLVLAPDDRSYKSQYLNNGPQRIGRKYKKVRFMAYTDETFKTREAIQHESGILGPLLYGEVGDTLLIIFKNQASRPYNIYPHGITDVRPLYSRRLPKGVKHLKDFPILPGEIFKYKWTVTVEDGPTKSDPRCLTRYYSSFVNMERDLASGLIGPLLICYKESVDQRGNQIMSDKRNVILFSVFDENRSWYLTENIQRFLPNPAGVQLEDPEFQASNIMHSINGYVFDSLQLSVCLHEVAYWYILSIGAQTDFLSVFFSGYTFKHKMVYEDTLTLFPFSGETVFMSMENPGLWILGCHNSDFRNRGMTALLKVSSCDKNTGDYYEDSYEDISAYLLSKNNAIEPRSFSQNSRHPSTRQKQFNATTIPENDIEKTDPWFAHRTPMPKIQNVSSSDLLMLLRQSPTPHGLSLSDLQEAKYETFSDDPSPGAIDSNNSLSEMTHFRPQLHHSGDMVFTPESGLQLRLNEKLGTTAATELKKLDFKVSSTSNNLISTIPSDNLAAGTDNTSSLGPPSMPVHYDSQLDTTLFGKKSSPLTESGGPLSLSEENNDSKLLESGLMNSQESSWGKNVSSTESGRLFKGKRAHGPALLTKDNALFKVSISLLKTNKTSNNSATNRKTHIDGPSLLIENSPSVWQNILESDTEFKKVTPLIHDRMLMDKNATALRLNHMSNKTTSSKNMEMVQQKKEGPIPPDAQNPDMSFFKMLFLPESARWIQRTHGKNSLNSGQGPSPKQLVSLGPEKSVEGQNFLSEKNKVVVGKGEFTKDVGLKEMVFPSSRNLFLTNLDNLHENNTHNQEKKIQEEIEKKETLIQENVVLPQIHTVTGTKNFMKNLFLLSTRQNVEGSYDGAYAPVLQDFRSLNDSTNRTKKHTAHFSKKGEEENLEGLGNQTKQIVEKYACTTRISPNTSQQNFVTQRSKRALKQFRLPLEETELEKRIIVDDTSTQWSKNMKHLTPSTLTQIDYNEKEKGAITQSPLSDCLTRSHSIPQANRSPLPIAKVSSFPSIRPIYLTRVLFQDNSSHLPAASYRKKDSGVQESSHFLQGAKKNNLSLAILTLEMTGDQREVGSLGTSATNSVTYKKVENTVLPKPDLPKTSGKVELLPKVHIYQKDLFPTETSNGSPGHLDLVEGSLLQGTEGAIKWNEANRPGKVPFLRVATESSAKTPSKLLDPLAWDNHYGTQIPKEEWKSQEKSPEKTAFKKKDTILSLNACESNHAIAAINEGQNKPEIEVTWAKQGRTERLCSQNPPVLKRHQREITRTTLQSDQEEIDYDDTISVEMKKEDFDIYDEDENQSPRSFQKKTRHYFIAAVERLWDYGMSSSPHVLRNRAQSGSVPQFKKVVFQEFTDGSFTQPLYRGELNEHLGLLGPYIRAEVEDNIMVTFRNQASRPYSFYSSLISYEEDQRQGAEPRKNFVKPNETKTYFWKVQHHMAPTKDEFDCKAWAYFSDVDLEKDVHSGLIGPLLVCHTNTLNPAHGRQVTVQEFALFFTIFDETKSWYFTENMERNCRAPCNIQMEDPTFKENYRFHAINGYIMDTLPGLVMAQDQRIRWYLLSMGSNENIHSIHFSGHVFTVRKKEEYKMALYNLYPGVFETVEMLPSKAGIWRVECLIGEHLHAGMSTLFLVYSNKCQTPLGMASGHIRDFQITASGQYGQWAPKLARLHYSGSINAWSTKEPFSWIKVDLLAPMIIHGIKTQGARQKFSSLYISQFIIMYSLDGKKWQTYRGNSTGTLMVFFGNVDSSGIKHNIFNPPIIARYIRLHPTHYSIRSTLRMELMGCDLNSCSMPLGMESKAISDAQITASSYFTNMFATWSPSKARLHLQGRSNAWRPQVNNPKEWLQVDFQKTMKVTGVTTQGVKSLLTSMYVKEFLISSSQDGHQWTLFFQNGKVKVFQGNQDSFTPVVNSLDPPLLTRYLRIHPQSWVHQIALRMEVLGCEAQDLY

Substance: ESH8, anti-light chain factor VIII mouse monoclonal antibody
% Of Initial Activity (APTT, 4 hour incubation at 37 C with FVIII-deficient plasma), + ESH8 (% of initial activity) [2]: 120
% Of Initial Activity (APTT, 4 hour incubation at 37 C with FVIII-deficient plasma), + ESH8 (% of initial activity) [3]: 29

Substance: IR8 (90/b/73 R336I/R562K/R740A; del795-1688/Arg336Iso/Arg562Lys/Arg740Ala) (from UniProt P00451 20-759; P00451 1708-2351)
fold lower binding affinity compared to wild-type FVIII [4]: 10 fold
fold reduced affinity compared to rFVIII [5]: 20 fold
pKd [6]: 7.98
fold lower affinity than FVIII WT [7]: 10 fold

Substance: IR8/ESH8 (from UniProt P00451 20-759; P00451 1708-2351)
koff (vWF (human) [8]): 0.0025 s⁻¹

Substance: IR8/ESH8 complex (from UniProt P00451 20-759; P00451 1708-2351)
pKd [9]: 8.89
fold lower binding affinity compared to wild-type FVIII [10]: 2 fold

Substance: pdfVIII
pKd (vWF (human) [11]): 9.51

Substance: wild-type factor VIII (FVIII WT) (from UniProt P00451 20-2351)
pKd [9]: 9.52

Further lines, results first:

fold increased rate of A2 subunit dissociation compared to a B domainless FVIII control [1]: 2 fold
Substance: A2 subunit of thrombin-cleaved R698L B-domainless FVIII (from UniProt P00451 392-759)

fold increased rate of A2 subunit dissociation compared to a B domainless FVIII control [1]: 3 fold
Substance: A2 subunit of thrombin-cleaved R698W B-domainless FVIII (from UniProt P00451 392-759)

kon [12]: 140000 M⁻¹ s⁻¹
pKd [13]: 7.53
koff [13]: 0.0042 s⁻¹
Substance: von Willebrand factor (vWF) (from UniProt P04275 764-2813)
